Some results are limits rather than exact numbers.

The experiment has as its target autologous blood coagulum (ABC) prepared from rat full blood. Description: rhBMP-6 mixed with rat full blood, coagulated for 60 min, serum removed; method of quantification not stated.

For the substance “recombinant human BMP6 (rhBMP6) (from UniProt P22004 375-513) (ligand)”, the percent bound is > 95%.

(Values after patent US20210213165A1.)
